Source: the Immune Epitope Database (IEDB)
pIC50, pKd: −log10 of the molar value.

Key:
HLA-B*57:01 = test: IEDB peptide-MHC binding, purified MHC/direct/fluorescence; filed as Kd, often an IC50 or EC50 that approximates it; ≥ and ≤ were set here for values at or beyond the usual limits of such assays
HLA-B*46:01 = test: as above; settings: source organism: Camelpox virus M-96
HLA-B*48:01 = test: as above
HLA-B*40:01 = test: as above
HLA-B*07:02 [1] = test: as above
HLA-A*11:01 [2] = test: as above
HLA-A*01:01 [3] = test: as above
HLA-A*03:01 = test: as above; settings: source organism: Camelpox virus M-96
HLA-A*69:01 = test: as above
HLA-B*58:01 = test: as above
HLA-A*31:01 [4] = test: as above
HLA-A*02:01 [5] = test: IEDB peptide-MHC binding, purified MHC/competitive/fluorescence; filed as Kd, often an IC50 or EC50 that approximates it; ≥ and ≤ were set here for values at or beyond the usual limits of such assays
HLA-A*68:02 [6] = test: as above
HLA-B*08:01 [7] = test: as above; settings: source organism: Vaccinia virus Copenhagen
HLA-A*26:03 [8] = test: as above; settings: source organism: Vaccinia virus Copenhagen
HLA-A*02:06 = test: as above
HLA-B*15:17 [9] = test: as above
HLA-A*26:02 [10] = test: as above
HLA-B*18:01 [11] = test: as above; settings: source organism: Vaccinia virus Copenhagen
HLA-B*15:01 = test: as above
HLA-A*26:03 [12] = test: IEDB peptide-MHC binding, purified MHC/direct/fluorescence; filed as Kd, often an IC50 or EC50 that approximates it; ≥ and ≤ were set here for values at or beyond the usual limits of such assays; settings: source organism: Bacillus cereus NVH0597-99
HLA-B*27:05 = test: as above; settings: source organism: Bacillus anthracis
HLA-B*15:17 [13] = test: as above; settings: source organism: Bacillus anthracis
HLA-A*26:02 [14] = test: as above; settings: source organism: Bacillus cereus NVH0597-99
HLA-B*08:02 = test: as above
HLA-B*08:03 = test: as above; settings: source organism: Bacillus cereus NVH0597-99
HLA-A*11:01 [15] = test: IEDB peptide-MHC binding, purified MHC/competitive/fluorescence; filed as Kd, often an IC50 or EC50 that approximates it; ≥ and ≤ were set here for values at or beyond the usual limits of such assays; settings: source organism: Bacillus anthracis str. A0488
HLA-A*30:01 = test: as above; settings: source organism: Bacillus anthracis str. A0488
HLA-A*31:01 [16] = test: as above; settings: source organism: Bacillus anthracis str. A0488
HLA-C*07:02 = test: IEDB peptide-MHC binding, purified MHC/direct/fluorescence; filed as Kd, often an IC50 or EC50 that approximates it; ≥ and ≤ were set here for values at or beyond the usual limits of such assays
HLA-A*24:02 [17] = test: IEDB peptide-MHC binding, purified MHC/competitive/fluorescence; filed as Kd, often an IC50 or EC50 that approximates it; ≥ and ≤ were set here for values at or beyond the usual limits of such assays
HLA-C*04:01 = test: IEDB peptide-MHC binding, purified MHC/direct/fluorescence; filed as Kd, often an IC50 or EC50 that approximates it; ≥ and ≤ were set here for values at or beyond the usual limits of such assays
HLA-C*05:01 = test: as above; settings: source organism: Mycobacterium tuberculosis C
HLA-A*24:03 = test: as above
HLA-B*35:01 = test: IEDB peptide-MHC binding, purified MHC/competitive/fluorescence; ≥ and ≤ were set here for values at or beyond the usual limits of such assays; settings: source organism: Bos taurus
HLA-A*24:02 [18] = test: as above; settings: source organism: Bos taurus
HLA-B*07:02 [19] = test: IEDB peptide-MHC binding, purified MHC/competitive/fluorescence; filed as Kd, often an IC50 or EC50 that approximates it; ≥ and ≤ were set here for values at or beyond the usual limits of such assays
HLA-A*02:01 [20] = test: IEDB peptide-MHC binding, purified MHC/direct/fluorescence; filed as Kd, often an IC50 or EC50 that approximates it; ≥ and ≤ were set here for values at or beyond the usual limits of such assays; settings: source organism: Camelpox virus CMS
HLA-A*68:02 [21] = test: as above; settings: source organism: Camelpox virus CMS
HLA-B*08:01 [22] = test: as above; settings: source organism: Variola virus
HLA-A*26:01 = test: as above; settings: source organism: Variola virus
HLA-B*18:01 [23] = test: as above; settings: source organism: Camelpox virus CMS
HLA-A*01:01 [24] = test: IEDB peptide-MHC binding, purified MHC/competitive/fluorescence; filed as Kd, often an IC50 or EC50 that approximates it; ≥ and ≤ were set here for values at or beyond the usual limits of such assays; settings: source organism: Vaccinia virus Tian Tan
[25] = source organism: Camelpox virus M-96
[26] = source organism: Vaccinia virus Copenhagen
[27] = source organism: Bacillus anthracis
[28] = source organism: Bacillus anthracis str. A0488
[29] = source organism: West Nile virus
[30] = source organism: Camelpox virus CMS
[31] = source organism: Vaccinia virus Tian Tan
[32] = source organism: Tokudaia muenninki

## ALYSYASAK
HLA-B*57:01; [25]
  pKd: ≤ 4.70
HLA-B*46:01
  pKd: ≤ 4.70
HLA-B*48:01; [25]
  pKd: ≤ 4.70
HLA-B*40:01; [25]
  pKd: ≤ 4.70
HLA-B*07:02 [1]; [25]
  pKd: ≤ 4.70
HLA-A*11:01 [2]; [25]
  pKd: 7.93
HLA-A*01:01 [3]; [25]
  pKd: ≤ 4.70
HLA-A*03:01
  pKd: 7.40
HLA-A*69:01; [25]
  pKd: ≤ 4.70
HLA-B*58:01; [25]
  pKd: ≤ 4.70
HLA-A*31:01 [4]; [25]
  pKd: 6.97
HLA-A*02:01 [5]; [26]
  pKd: 7.25
HLA-A*68:02 [6]; [26]
  pKd: ≤ 4.70
HLA-B*08:01 [7]
  pKd: ≤ 4.70
HLA-A*26:03 [8]
  pKd: 6.31
HLA-A*02:06; [26]
  pKd: 6.57
HLA-B*15:17 [9]; [26]
  pKd: ≤ 4.70
HLA-A*26:02 [10]; [26]
  pKd: ≤ 4.70
HLA-B*18:01 [11]
  pKd: ≤ 4.70
HLA-B*15:01; [26]
  pKd: ≤ 4.70

## REFEAQNVP
HLA-B*57:01; [27]
  pKd: ≤ 4.70
HLA-A*26:03 [12]
  pKd: ≤ 4.70
HLA-B*48:01; [27]
  pKd: ≤ 4.70
HLA-B*27:05
  pKd: ≤ 4.70
HLA-B*40:01; [27]
  pKd: 6.53
HLA-B*07:02 [1]; [27]
  pKd: ≤ 4.70
HLA-B*15:17 [13]
  pKd: ≤ 4.70
HLA-A*26:02 [14]
  pKd: ≤ 4.70
HLA-A*01:01 [3]; [27]
  pKd: ≤ 4.70
HLA-B*08:02; source organism: Bacillus cereus NVH0597-99
  pKd: ≤ 4.70
HLA-A*69:01; [27]
  pKd: ≤ 4.70
HLA-B*58:01; [27]
  pKd: ≤ 4.70
HLA-B*08:03
  pKd: ≤ 4.70
HLA-A*02:01 [5]; [28]
  pKd: 6.84
HLA-A*68:02 [6]; [28]
  pKd: 5.66
HLA-A*11:01 [15]
  pKd: 6.30
HLA-A*30:01
  pKd: 6.28
HLA-A*31:01 [16]
  pKd: ≤ 4.70

## SYHDRRWCF
HLA-C*07:02; [29]
  pKd: 7.77
HLA-A*24:02 [17]; [29]
  pKd: 8.00

## VYAPAGVEL
HLA-C*04:01; source organism: Mycobacterium tuberculosis C
  pKd: ≤ 4.70
HLA-C*05:01
  pKd: ≤ 4.70
HLA-A*24:03; source organism: Mycobacterium tuberculosis
  pKd: 8.68

## WYAPVALLF
HLA-A*24:02 [17]; [28]
  pKd: ≥ 10.00

## YMMDDLEL
HLA-B*35:01
  pIC50: ≤ 4.70
HLA-A*24:02 [18]
  pIC50: 5.97

## YPRYPGVRC
HLA-B*07:02 [19]; source organism: Influenza A virus (A/nt/60/1968(H3N2))
  pKd: 7.99

## YYKDDISYF
HLA-A*02:01 [20]
  pKd: ≤ 4.70
HLA-A*68:02 [21]
  pKd: ≤ 4.70
HLA-B*57:01; [30]
  pKd: ≤ 4.70
HLA-B*08:01 [22]
  pKd: ≤ 4.70
HLA-A*26:01
  pKd: 6.24
HLA-A*11:01 [2]; [30]
  pKd: ≤ 4.70
HLA-C*07:02; [31]
  pKd: 7.54
HLA-B*18:01 [23]
  pKd: ≤ 4.70
HLA-B*08:02; source organism: Variola virus
  pKd: ≤ 4.70
HLA-A*69:01; [30]
  pKd: ≤ 4.70
HLA-B*58:01; [30]
  pKd: ≤ 4.70
HLA-A*24:03; [30]
  pKd: 8.43
HLA-A*31:01 [4]; [30]
  pKd: ≤ 4.70
HLA-A*02:06; [31]
  pKd: ≤ 4.70
HLA-B*07:02 [19]; [31]
  pKd: ≤ 4.70
HLA-B*15:17 [9]; [31]
  pKd: ≤ 4.70
HLA-A*26:02 [10]; [31]
  pKd: 7.46
HLA-A*01:01 [24]
  pKd: 5.86
HLA-B*15:01; [31]
  pKd: ≤ 4.70

## YYNAFQWAI
HLA-C*04:01; [32]
  pKd: ≤ 4.70
HLA-C*07:02; [32]
  pKd: 7.52
